Experimental data taken from patent publication US20240252614A1.

Experiments:
Details in all cases: remark: other sources report otherwise
[1] = biological target: hMPV A F WT Control (hMPV A), Q6WB98; assay: BLI, 68C stress
hMPV080 (hMPV A), Q6WB98 [2] = assay: BLI, 68C stress
hMPV085 (hMPV A), Q6WB98 [3] = assay: BLI, 53C stress
hMPV090 (hMPV A), Q6WB98 [4] = assay: BLI, 53C stress
[5] = biological target: hMPV A F WT Control (hMPV A), Q6WB98; assay: BLI, 53C stress
hMPV088 (hMPV A), Q6WB98 [6] = assay: BLI, 53C stress
hMPV086 (hMPV A), Q6WB98 [7] = assay: BLI, 53C stress
hMPV082 (hMPV A), Q6WB98 [8] = assay: BLI, 53C stress
hMPV083 (hMPV A), Q6WB98 [9] = assay: BLI, 53C stress
hMPV081 (hMPV A), Q6WB98 [10] = assay: BLI, 53C stress
hMPV078 (hMPV A), Q6WB98 [11] = assay: BLI, 53C stress
hMPV079 (hMPV A), Q6WB98 [12] = assay: BLI, 53C stress
hMPV089 (hMPV A), Q6WB98 [13] = assay: BLI, 53C stress
hMPV084 (hMPV A), Q6WB98 [14] = assay: BLI, 53C stress
hMPV097 (hMPV A), Q6WB98 [15] = assay: BLI, 53C stress
hMPV087 (hMPV A), Q6WB98 [16] = assay: BLI, 53C stress
hMPV085 (hMPV A), Q6WB98 [17] = assay: BLI, no stress
hMPV090 (hMPV A), Q6WB98 [18] = assay: BLI, no stress
[19] = biological target: hMPV A F WT Control (hMPV A), Q6WB98; assay: BLI, no stress
hMPV088 (hMPV A), Q6WB98 [20] = assay: BLI, no stress
hMPV086 (hMPV A), Q6WB98 [21] = assay: BLI, no stress
hMPV082 (hMPV A), Q6WB98 [22] = assay: BLI, no stress
hMPV083 (hMPV A), Q6WB98 [23] = assay: BLI, no stress
hMPV081 (hMPV A), Q6WB98 [24] = assay: BLI, no stress
hMPV078 (hMPV A), Q6WB98 [25] = assay: BLI, no stress
hMPV079 (hMPV A), Q6WB98 [26] = assay: BLI, no stress
hMPV089 (hMPV A), Q6WB98 [27] = assay: BLI, no stress
hMPV084 (hMPV A), Q6WB98 [28] = assay: BLI, no stress
hMPV097 (hMPV A), Q6WB98 [29] = assay: BLI, no stress
hMPV087 (hMPV A), Q6WB98 [30] = assay: BLI, no stress
[31] = biological target: hMPV A F WT Control (hMPV A), Q6WB98; assay: BLI, 53C stress; remark: listed apart in the source
hMPV080 (hMPV A), Q6WB98 [32] = assay: BLI, 53C stress
hMPV052 (hMPV A), Q6WB98 = assay: BLI, 50C stress
[33] = biological target: hMPV A F WT Control (hMPV A), Q6WB98; assay: BLI, 50C stress
hMPV059 (hMPV A), Q6WB98 = assay: BLI, 50C stress
hMPV060 (hMPV A), Q6WB98 = assay: BLI, 50C stress
hMPV063 (hMPV A), Q6WB98 = assay: BLI, 50C stress
hMPV058 (hMPV A), Q6WB98 = assay: BLI, 50C stress
hMPV054 (hMPV A), Q6WB98 = assay: BLI, 50C stress
hMPV053 (hMPV A), Q6WB98 = assay: BLI, 50C stress
hMPV048 (hMPV A), Q6WB98 = assay: BLI, 50C stress
hMPV069 (hMPV A), Q6WB98 = assay: BLI, 50C stress
hMPV044 (hMPV A), Q6WB98 = assay: BLI, 50C stress
hMPV071 (hMPV A), Q6WB98 = assay: BLI, 50C stress

B1: MPE8 mAb (antibody, V domains shown)
VH: EVQLVESGGGLVKPGGSLRLSCAASGFTFSSYSMNWVRQAPGKGLEWVSSISASSSYSDYADSAKGRFTISRDNAKTSLFLQMNSLRAEDTAIYFCARARATGYSSITPYFDIWGQGTLVTVSS
VL: QSVVTQTPSVSGAPGQRVTISCTGSSSNIGAGYDVHWYQQLPGTAPKLLIYDNNNRPSGVPDRFSASKSGTSASLAITGLQAEDEADYYCQSYDRNLSGVFGTGTKVTVL
With B1 the Response Shift [1] was 0.025 nm, the Response Shift (hMPV080 (hMPV A), Q6WB98 [2]) was -0.075 nm and the Response Shift (hMPV085 (hMPV A), Q6WB98 [3]) was 0.889 nm. The Response Shift (hMPV090 (hMPV A), Q6WB98 [4]) was 0.909 nm, the Response Shift [5] was 0.096 nm and the Response Shift (hMPV088 (hMPV A), Q6WB98 [6]) was 0.937 nm. For the same binder, the Response Shift (hMPV086 (hMPV A), Q6WB98 [7]) was 0.86 nm, the Response Shift (hMPV082 (hMPV A), Q6WB98 [8]) was 0.985 nm and the Response Shift (hMPV083 (hMPV A), Q6WB98 [9]) was 0.796 nm. The Response Shift (hMPV081 (hMPV A), Q6WB98 [10]) was 0.915 nm, the Response Shift (hMPV078 (hMPV A), Q6WB98 [11]) was 0.939 nm and the Response Shift (hMPV079 (hMPV A), Q6WB98 [12]) was 0.861 nm. It also gave a Response Shift (hMPV089 (hMPV A), Q6WB98 [13]) of 0.928 nm, a Response Shift (hMPV084 (hMPV A), Q6WB98 [14]) of 0.908 nm and a Response Shift (hMPV097 (hMPV A), Q6WB98 [15]) of 0.935 nm. It also gave a Response Shift (hMPV087 (hMPV A), Q6WB98 [16]) of 0.903 nm, a Response Shift (hMPV085 (hMPV A), Q6WB98 [17]) of 0.877 nm and a Response Shift (hMPV090 (hMPV A), Q6WB98 [18]) of 0.903 nm. It also gave a Response Shift [19] of 0.926 nm, a Response Shift (hMPV088 (hMPV A), Q6WB98 [20]) of 0.974 nm and a Response Shift (hMPV086 (hMPV A), Q6WB98 [21]) of 0.834 nm. For the same binder, the Response Shift (hMPV082 (hMPV A), Q6WB98 [22]) was 0.949 nm, the Response Shift (hMPV083 (hMPV A), Q6WB98 [23]) was 0.805 nm and the Response Shift (hMPV081 (hMPV A), Q6WB98 [24]) was 0.955 nm. The Response Shift (hMPV078 (hMPV A), Q6WB98 [25]) was 0.955 nm, the Response Shift (hMPV079 (hMPV A), Q6WB98 [26]) was 0.887 nm and the Response Shift (hMPV089 (hMPV A), Q6WB98 [27]) was 0.959 nm. The Response Shift (hMPV084 (hMPV A), Q6WB98 [28]) was 0.924 nm, the Response Shift (hMPV097 (hMPV A), Q6WB98 [29]) was 0.918 nm and the Response Shift (hMPV087 (hMPV A), Q6WB98 [30]) was 0.979 nm. It also gave a Response Shift [31] of 0.037 nm, a Response Shift (hMPV080 (hMPV A), Q6WB98 [32]) of 0.798 nm and a Response Shift (hMPV052 (hMPV A), Q6WB98) of 0.482 nm. It also gave a Response Shift [33] of 0.174 nm, a Response Shift (hMPV059 (hMPV A), Q6WB98) of 0.344 nm and a Response Shift (hMPV060 (hMPV A), Q6WB98) of 0.712 nm. For the same binder, the Response Shift (hMPV063 (hMPV A), Q6WB98) was 0.57 nm, the Response Shift (hMPV058 (hMPV A), Q6WB98) was 0.403 nm and the Response Shift (hMPV054 (hMPV A), Q6WB98) was 0.381 nm. It also gave a Response Shift (hMPV053 (hMPV A), Q6WB98) of 0.422 nm, a Response Shift (hMPV048 (hMPV A), Q6WB98) of 0.377 nm and a Response Shift (hMPV069 (hMPV A), Q6WB98) of 0.355 nm. For the same binder, the Response Shift (hMPV044 (hMPV A), Q6WB98) was 0.722 nm and the Response Shift (hMPV071 (hMPV A), Q6WB98) was 0.671 nm.
